Results from patent US20180142032A1 (Sanofi, published 2018).
Residue numbers refer to the chain shown, from its start.

T1: LAMP1_mseq11_ΔGYQTI (human; mouse, UniProt P11279 29-412)
T1 construct: on cells; also called pXL5995
T1 chain: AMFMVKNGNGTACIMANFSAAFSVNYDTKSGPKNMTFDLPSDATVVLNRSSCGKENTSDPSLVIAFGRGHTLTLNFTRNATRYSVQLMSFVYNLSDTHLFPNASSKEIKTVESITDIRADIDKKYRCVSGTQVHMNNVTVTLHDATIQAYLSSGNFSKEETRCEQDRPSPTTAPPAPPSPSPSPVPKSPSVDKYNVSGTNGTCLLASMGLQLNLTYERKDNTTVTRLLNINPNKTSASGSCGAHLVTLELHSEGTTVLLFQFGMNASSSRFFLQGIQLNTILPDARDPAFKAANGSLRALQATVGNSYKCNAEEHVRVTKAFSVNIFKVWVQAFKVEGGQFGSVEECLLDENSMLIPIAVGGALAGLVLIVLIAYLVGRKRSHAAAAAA

T2: LAMP1_hL1_mL2_hL34_ΔGYQTI (human; mouse, UniProt P11279 29-412)
T2 construct: on cells; also called pXL5997
T2 chain: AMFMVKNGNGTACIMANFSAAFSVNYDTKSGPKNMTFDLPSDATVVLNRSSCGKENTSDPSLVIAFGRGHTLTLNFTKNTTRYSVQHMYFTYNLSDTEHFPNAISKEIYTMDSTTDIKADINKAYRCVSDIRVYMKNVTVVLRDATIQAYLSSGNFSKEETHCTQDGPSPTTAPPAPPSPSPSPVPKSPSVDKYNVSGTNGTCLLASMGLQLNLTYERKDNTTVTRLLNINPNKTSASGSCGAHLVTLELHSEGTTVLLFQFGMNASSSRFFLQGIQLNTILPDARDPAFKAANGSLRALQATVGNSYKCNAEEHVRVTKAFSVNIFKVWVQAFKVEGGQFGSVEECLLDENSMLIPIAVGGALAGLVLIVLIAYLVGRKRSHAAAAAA

T3: LAMP1_mseq6_ΔGYQTI (human; mouse, UniProt P11279 29-412)
T3 construct: on cells; also called pXL5990
T3 chain: T1 chain with H70Y, T71L, R78K, A80T, S153N, G154S, N155S, K158R, E159G

T4: cynomolgus monkey LAMP1 at the cell surface (cynomolgus monkey, UniProt P11279 29-417 (human entry))
T4 construct: also called cynoLAMP1; cynomolgus LAMP1
T4 chain: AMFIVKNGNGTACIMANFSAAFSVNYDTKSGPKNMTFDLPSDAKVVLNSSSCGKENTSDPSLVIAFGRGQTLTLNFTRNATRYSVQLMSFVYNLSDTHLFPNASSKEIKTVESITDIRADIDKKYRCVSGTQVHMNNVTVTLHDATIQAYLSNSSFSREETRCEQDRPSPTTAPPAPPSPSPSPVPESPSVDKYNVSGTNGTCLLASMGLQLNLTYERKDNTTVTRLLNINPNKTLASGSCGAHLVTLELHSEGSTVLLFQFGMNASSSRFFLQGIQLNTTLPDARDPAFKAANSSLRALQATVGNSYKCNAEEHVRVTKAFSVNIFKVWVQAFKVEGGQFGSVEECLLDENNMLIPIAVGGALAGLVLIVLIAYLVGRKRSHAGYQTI

T5: human LAMP1 at the cell surface (human, UniProt P11279 29-417)
T5 construct: native on tumour cells (PDX, Colo205, SW480, LS174T) or from the cloned CDS NM_005561.3 in HEK293 and HCT116; signal peptide 1-28 left out; also called huLAMP1; full length human LAMP1
T5 sequence: T1 chain with S153N, G154S, N155S, K158R, E159G, A385G, A386Y, A387Q, A388T, A389I

B1: huMAb1_1 (antibody, human IgG1, kappa)
heavy: not shown
light: DIQMTQSPSSLSASVGDRVTITCKASQDIDRYMAWYQDKPGKAPRLLIHDTSTLQSGVPSRFSGSGSGRDYTLTISNLEPEDFATYYCLQYDNLWTFGGGTKVEIKRTVAAPSVFIFPPSDEQLKSGTASVVCLLNNFYPREAKVQWKVDNALQSGNSQESVTEQDSKDSTYSLSSTLTLSKADYEKHKVYACEVTHQGLSSPVTKSFNRGEC
notes: humanized, VH1-huIgG1 and VL1-huCk
B2: MAb1 (antibody, mouse IgG2a, kappa)
heavy: QVQLQQSGAELVKPGASVKMSCKASGYIFTNYNIHWVKKSPGQGLEWIGAIYPGNGDAPYSQKFKDKATLTADKSSSTTYMQLSRLTSEDSAVYYCVRANWDVAFAYWGQGTLVSVSAAKTTAPSVYPLAPVCGDTTGSSVTLGCLVKGYFPEPVTLTWNSGSLSSGVHTFPAVLQSDLYTLSSSVTVTSSTWPSQSITCNVAHPASSTKVDKKIEPRGPTIKPCPPCKCPAPNLLGGPSVFIFPPKIKDVLMISLSPIVTCVVVDVSEDDPDVQISWFVNNVEVHTAQTQTHREDYNSTLRVVSALPIQHQDWMSGKEFKCKVNNKDLPAPIERTISKPKGSVRAPQVYVLPPPEEEMTKKQVTLTCMVTDFMPEDIYVEWTNNGKTELNYKNTEPVLDSDGSYFMYSKLRVEKKNWVERNSYSCSVVHEGLHNHHTTKSFSRTPGK
light: DIQMTQSPPSLSASLGGKVTITCKASQDIDRYMAWYQDKPGKGPRLLIHDTSTLQPGIPSRFSGSGSGRDYSFSISNLEPEDIATYYCLQYDNLWTFGGGTKLEIKRADAAPTVSIFPPSSEQLTSGGASVVCFLNNFYPKDINVKWKIDGSERQNGVLNSWTDQDSKDSTYSMSSTLTLTKDEYERHNSYTCEATHKTSTSPIVKSFNRNEC
notes: murine monoclonal IgG, kappa, from hybridoma; also called murine MAb1

How the values were obtained:
LAMP1_mseq11_ΔGYQTI = molecular target: T1, LAMP1_mseq11_ΔGYQTI; test: flow cytometry, transfected 293-F cells
[1] = molecular target: T2, LAMP1_hL1_mL2_hL34_ΔGYQTI; test: flow cytometry, transfected 293-F cells
LAMP1_mseq6_ΔGYQTI = molecular target: T3, LAMP1_mseq6_ΔGYQTI; test: flow cytometry, transfected 293-F cells
[2] = molecular target: T4, cynomolgus monkey LAMP1 at the cell …; test: flow cytometry, transiently transfected HEK293 cells
Text: (§1) LAMP1 Coding DNA Sequence, RefSeq NM_005561.3 (SEQ ID NO: 23) was cloned internally. The CDS of Macaca mulatta LAMP1, RefSeq XP_001087801 (SEQ ID NO: 27) was also cloned internally. […] Therefore the secreted LAMP1 used in the following example is referred to cynomolgus monkey. Both CDS were cloned into mammalian expression plasmids under CMV enhancer/promoter and SV40 polyA signals. HEK293 cells (Invitrogen; #K9000-10.) were transiently transfected with human LAMP1 or cynomolgus LAMP1 plasmids using FreeStyle™ MAX 293 Expression System according to the manufacturer's instructions. […] 100 μL/well of goat anti-mouse IgG conjugated with Alexa647 (Invitrogen; # A2135) was added for 45 min at 4° C. and washed three times with PBS 1% BSA. The antibody binding was evaluated after centrifugation and resuspension of cells by adding 200 μl/well PBS 1% BSA and read using Guava® easyCyte™ 8HT Flow Cytometry System. EC50 values were estimated using BIOST@T-SPEED software.

[3] = molecular target: T5, human LAMP1 at the cell surface; test: as above
Text: as §1

Binder | binding result (LAMP1_mseq11_ΔGYQTI) | binding result [1] | binding result (LAMP1_mseq6_ΔGYQTI) | EC50 [2] | EC50 [3]
B1 | no binding | no binding | no binding |  | 
B2 |  |  |  | 44 nM | 14 nM
